Test [1] concerns the target recombinant human CD47 (human) (UniProt Q08722). Nature of the test: SPR, Biacore X100, antibody captured on Protein A chip, CD47 as analyte.
Test [2] concerns the target recombinant human CD47-Fc protein (ACROBiosystems, catalog number CD7-H52A5) (human) (UniProt Q08722). Nature of the test: blocking ELISA: plate coated with human CD47-Fc, 2 nM biotin-labelled SIRPα as the blocked ligand, falling OD450 curve; the sheet labels the half-maximal value EC50. In general terms: An ELISA detects its analyte on a solid surface through an enzyme-linked reagent.

For test [3], the target named is recombinant human CD47 (human) (UniProt Q08722). Nature of the test: SPR, Biacore X100, antibody captured on Protein A chip, CD47 as analyte. This is another data set of the same source. On the technique in general: Surface plasmon resonance follows binding to a sensor surface in real time, without labels.
Sequence of recombinant human CD47 (human) (Q08722 19-139 limits assumed): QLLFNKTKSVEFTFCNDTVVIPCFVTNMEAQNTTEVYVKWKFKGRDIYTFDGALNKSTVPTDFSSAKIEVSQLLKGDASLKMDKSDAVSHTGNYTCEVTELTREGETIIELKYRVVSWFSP
Test [4] has the same target. Description: ELISA, plate coated with recombinant human CD47, OD450.
Test [5] deals with recombinant human CD47-Fc protein (ACROBiosystems, catalog number CD7-H52A5) (human) (UniProt Q08722). Description: blocking ELISA: plate coated with human CD47-Fc, biotin-labelled SIRPα as the blocked ligand, falling OD450 curve; the sheet labels the half-maximal value EC50.
Sequence of recombinant human CD47-Fc protein (ACROBiosystems, catalog number CD7-H52A5) (human) (Q08722 19-139 limits assumed): as above
The target of test [6] is recombinant human CD47 (human) (UniProt Q08722). Description: ELISA, plate coated with 1 µg/mL recombinant human CD47, OD450.

Where two headings read alike, the source gives them in different places.

B1: control CC-90002 (a patent sequence from WO2016109415) (antibody, from another filing, V domains shown)
VH: QMQLVQSGAEVKKTGSSVKVSCKASGFNIKDYYLHWVRQAPGQALEWMGWIDPDQGDTEYAQKFQDRVTITRDRSMSTAYMELSSLRSEDTAMYYCNAAYGSSSYPMDYWGQGTTVTV
VL: NIQMTQSPSAMSASVGDRVTITCKASQDIHRYLSWFQQKPGKVPKHLIYRANRLVSGVPSRFSGSGSGTEFTLTISSLQPEDFATYYCLQYDEFPYTFGGGTKVEIK
Take B1: the results for the Kd in test [1] and in test [3] were 857 pM and 1160 pM, respectively. Moreover, the koff in test [1] stood at 0.00135 s⁻¹; in test [3], 0.00176 s⁻¹. Also, the figures for the kon in test [1] and in test [3] were 1.57e+06 M⁻¹ s⁻¹ and 1.52e+06 M⁻¹ s⁻¹, respectively. Besides, the IC50 was 1430 pM in test [2] and 774 pM in test [5]. For the same molecule, the figures for the EC50 in test [4] and in test [6] were 33 pM and 58 pM, respectively.

For orientation: Kd means the free concentration of one partner at which half of the binding sites on the other are occupied at equilibrium, for simple one-to-one binding. What is called koff is a measure of how fast the partners let go of each other. A word on the kon: it is a measure of how fast the partners come together. The IC50 is the midpoint of a concentration-inhibition curve. As usually defined, the EC50 is the concentration at which the effect is half-maximal.

Values taken from patent US20250277031A1.
